# Data: publication PMC5492076, “β-Cyanoalanine Synthases and Their Possible Role in Pierid Host Plant Adaptation” (Insects, 2017)
# B1: CcBSAS2 (Colias croceus) (protein)
# chain: MAKVNGIQNEIKESALDLIGNTPIVALDRLHPGPGRILAKCEFMNPGASIKCRSSLHMINKAIEKGLLKPGQSVLEVTSGNQGCGLAVVCSVMGHPLTVTMSMGNSAQRAIHMEALGAKCVRVPQVEGTYGNVTLADVKAAEKEGLRLAEEIGAYYVNQFNNEDNANSHYCTTGPEIWRQTGHRVDAFVATVGTAGTFTGSSRFLKEKNPNIQCYVVEPEGSQPIRGCAITKPLHLLQGSGYGCVPNLFNFETMDGTLSVTDEEASKYMKLIGEKEGLYVGYTSGANVAAAVKLLNSGTLPEDAWVVTLLNDSGLKYTPVPESLSGNSNNANSD
# notes: N-terminal Strep-tag, E. coli BL21(DE3) pLysS; Strep-Tactin purified
# B2: AcrBSAS1 (Aporia crataegi) (protein)
# chain: MGQTCEKQTDIRSSALELIGNTPLVALDRLYPGPGRLLAKCESMNPGGSIKDRASYHMIKKARLRGELKPGDPVIEATSGNQGCGLAVSCAVLGHPLTLTMSKGNTVQRAIHMEALGATCVRVPQVEGTYGHVTNADLMVVKKEAIVLQQKTGAFFVNQFLNEDNVEAHYISTGPEIWHQTAGRVNAFVTAVGTSGTFMGVSRFLKKQNPKIQCYVVEPEGCEPIKGKPIIKASNTLQGSSYGLVPDLFKYEVMSETITVTDEEAQEYMHLIGKKEGLYVGYTSGANVCAAVKLLKSGKLSKKAWVVTILFDTGLKYTPVPSLM
# notes: as for B1
# B3: ZfBSAS2 (Zygaena filipendulae) (protein)
# chain: MSPPVLQHHDEIKSSALELIGNTPIVALDRLYTGPGRILAKCEFMNPGASIKCRSSLYMIQKALDEKLLKPGEPVLEVTSGNQGCGLAVVCAVLQHPLTLTMSKGNSAQRAVHMAALGAKCIRVPQVEGTYGNVTLADVKAAEAEGLRIVEKTGAYYVNQFNNEANTLAHYETTGPEIWRQTGGRVDAFVATVGTAGTFTGTSKYLKEKNPELKAYVVEPQGSEPIKQLPITKPLHVLQGSGYGCIPNLFNYSTMNDTISVTDEESKHYKKLLGTKEGLYVGYTSGANVAAAVKLLESGTLPDDAWVVTTLNDSGLKYSPTPDEIELSD
# notes: as for B1
# B4: SlBSAS2b (Spodoptera littoralis) (protein)
# chain: MAPVEKNLKDEQPKYLKGDIKASALELIGNTPMVALDRLYSGPGRILAKCEFMNPGASIKCRSSLSMINRAIASGELKPGEPVVEITSGNQGCGLAVVCAVLGHPLTLAMSKGNSVQRALHMEALGAKVVRVDQVKGTYGNVTYADVEVVREVCDKLVKDQNAYFVNQFSNEANADAHYESTGPEIWQQTGHHVDAFVAAVGTAGTFMGTSRYLKEQNPNIKAYVVEPAGAEAIAGCEVTKPLHLLQGSGYGLIPDLLKYEFMDGSLSVTDEEAVKYMKLIGEKEGLYVGYTSGANVAAAIKLLESGLVPEDAWVVTVLADTGLKYTPVPEELMK
# notes: as for B1
# B5: AcaBSAS1 (Anthocharis cardamines) (protein)
# chain: MGQACEKQTDIRASAIELIGNTPLVALDRLHPGPGRILAKCEFMNPGGSIKCRASLHMIQKARLRGTLKPGDPVVEATSGNQGCGLAVACAVLGHPLTLTMSKGNTVQRAIHMEALGAKCIRVPQVEGTYGNVTNADLMAAKDEAISFHEKTGAFFVKQFVNEDNVEAHYTTTGPEIWYQTGNRVDAFVTAVGTSGTFMGVSKYLKKQNPKIRCYVVEPEGCEPIKGKPITKASNTLQGSSYGVIPDLFKFEYMNETITVTDEEAEEYRDLIGSKEGLYVGYTSGANVCAAVKLLKSGKLPKNAWVVTILFDTGLKYTPVPESLM
# notes: as for B1
# B6: AcaBSAS2 (Anthocharis cardamines) (protein)
# chain: MTKENGIPNEIKSSALDLIGETPLLALDRLHPGPGRILVKCEFNNPGASIKCRSAMHMIQEARAKGELKPGQPVLEVTSGNQGVGLAIVCAIYGHPLTATMSKGNSVQRAVHMEALGAKCIRVPQVEGTYGNVTINDVKAAEEEGLKIAKETGAYYVNQFNNDDNANSHYLTTGPEIWRQSGHHVDAFIATVGTAGTFAGTSRYLKEKNPDIQCYVVEPEGSQPIRGCEITKPLHLLQGSGYGCIPNLFKFETMDGTLSVTDEEAVRYKNLVGEKEGLYVGYTSGANVAAAVKLLKSGKLPEDAWVVTPLNDSGLKYTPVPDSLT
# notes: as for B1
# B7: PxBSAS2 (Plutella xylostella) (protein)
# chain: MSTIDGVIDGVHNEVKASALELIGNTPLVALDRLHPGPGRLLVKCEFMNPGASLKDRSSLHMIQDARAEGRLAPGAPVVEITSGNQGCGLAVVCAVLGHPLTLTMSAGNSVQRALHMEALGARCVRVPQVEGRYGSVTFADVEVCEKEGHKIVEETGAFLVNQFHNPSNSLSHYKMMGPEIWRQTGGRVDGFVATMGTGGVFTGTSRFLKEQNKDVKTYVVEPAGAEVIKGDAITKPLHLLQGSGYGYVPSLFDRSLLDGTLAVTDEETLEYRRLIGEKEGLFVGYTSAANVAAAARLLRSGQLPPDAWVVTILCDTGLKYC
# notes: as for B1
# B8: SlBSAS2a (Spodoptera littoralis) (protein)
# chain: MAPIEKDEQPKYLEGDIKASALELIGNTPLVALDRLYTGPGRILAKCEFMNPGASIKCRSSLSMINRAIASGELKPGEPVVEITSGNQGCGLAVVCAVLGHPLTLAMSKGSSAQRALHMEALGAKCVRVDQVEGTYGNVTYADVKAVEEVGMKIVEEQNAYFVNQFHNEANADAHYKSTGPEIWKQTGHHVDAFVATVGTSGTFAGTSRYLKEQNPDIKTYVVEPAGAEAIAGCPITKPLHLLQGSGYGWIPDLFKFEHMDGTLSVTDEEAVKYMKLVGEKEGLYVGYTSGANVAAAVKLLESGLIPEDAWVVTLLNDTGLKYTPVPEELFK
# notes: as for B1
# B9: GrBSAS2 (Gonepteryx rhamni) (protein)
# chain: MAKVNGIHSEIKESALDLIGNTPIVALDRLHPGPGRILAKCEFMNPGASIKCRSSLHMIQVAREKGLLKPGQPVLEVTSGNQGCGLAVVCSVMGHPLTVTMSKGNSVQRAIHMEALGAKCVRVPQVEGTYGNVTLADVKAAEQEGLRIAEETGAYYVNQFSNDDNANSHYCTTGPEIWRQTGHRVDAFVATVGTAGTFAGSSAYLKEKNPKIQCYVVEPEGSQPIRGCPITKPLHLLQGSGYGCIPNSFKFDTMDGTLSVTDEEATRYKNLIGEKEGLYVGYTSGANIAAAVKLLNSGKLPEDAWVVTLLNDSGLKYTPVPESLT
# notes: as for B1
# B10: CcBSAS3 (Colias croceus) (protein)
# chain: MTSSTNFPTDIKSSALELIGNTPLVALDRLHPGPGRILAKCEFMNPGASIKCRSSLHMIQKARERGDLKPGDPVIEVTSGNQGCGLAVVCAVLGHPLTLTMSKGNSVQRAIHMEALGAKCIRYPQVEGTYGNITYADVSIPIEAAVTLAEETGAYFVQQLCNEDNSAAHYEATGPEIWRQTGHRVDGFVTAVGTSGTFSGVSKFLKEQNPEILCCVVEPAGSEPLKGCPIVKPKHLLQGSSYGIVPNLFKPEFMDESISVTDEETEHYKDLIGKKEGLYVGYTSGANVAAAVKLLKSGKLPKDAWVVTVLCDSGLKYTPVPESLIN
# notes: as for B1
# B11: AcaBSAS3 (Anthocharis cardamines) (protein)
# chain: MSDSNGIPNEIKASALDLIGNTPLVALDRLHPGPGRILAKCEFMNPGGSIKCRSSLHMIQKARERGELKPGGSVVEVTSGNQGCGLAVVCAVLGHDLTVTMSKGNSIQRVIHMEALGAKCIRYPLVQGTYGNVTFADVEEALEAATNMSEESGAFFVKQFCNLENEEAHYVTTGPEIWRQTGHRVDAFVTAVGTSGTFSGVSTFLKEQNPDVKCFVVEPEGSQPLKGCPITKPLHLLQGASYGIIPDLFKPDLMEDSISVTDKEAVHYKDLIGTKEGLFVGYTSGANVAAAVKLLNSGKLPKDAWVVTTLCDTGLKYTPVPESLIE
# notes: as for B1
# B12: AcrBSAS2 (Aporia crataegi) (protein)
# chain: MAKVNGIKNEIKTSALELIGETPLLALDRLHPGPGRILVKCEFMNPGASIKCRSSLHMIQEARAKGLLKPGQPVLEVTSGNQGCGLAIVCAIYGHPLTVTMSKGNSLQRAIHMEALGAKCVRVPQVEGTYGNVTVNDVNAAEEEGLKIVKETGAYYVNQFNNEDNANSHYLTTGPEIWRQSGHNVDAFVATVGTAGTFAGTSRYLKEKNPNIKCFVVEPEGSQPIKGCPITKPLHLLQGSGYGCIPNLFNFDTMDGTLSVTDEEAVEYKNLIGEKEGLFVGFTSGANVAAAVKLLKSGLIPENSCLVTILNDTGLKYTPVAESLI
# notes: as for B1
# Tests used:
# Experiment in all cases: colorimetric sulfide formation, Michaelis-Menten fit
# [1] = substrate: N[C@@H](CS)C(=O)O; type: biochemical, Colias croceus; conditions: 6 mM KCN, 20 µM pyridoxal-5'-phosphate, Tris-HCl pH 8.5, 31 °C, 10 min
# Excerpt: colorimetric sulfide formation, Michaelis-Menten fit on CcBSAS2
# [2] = substrate: N[C@@H](CS)C(=O)O; type: biochemical, Aporia crataegi; conditions: 6 mM KCN, 20 µM pyridoxal-5'-phosphate, Tris-HCl pH 8.5, 31 °C, 10 min
# Excerpt: colorimetric sulfide formation, Michaelis-Menten fit on AcrBSAS1
# [3] = substrate: N[C@@H](CS)C(=O)O; type: biochemical, Zygaena filipendulae; conditions: 6 mM KCN, 20 µM pyridoxal-5'-phosphate, Tris-HCl pH 8.5, 31 °C, 10 min
# Excerpt: colorimetric sulfide formation, Michaelis-Menten fit on ZfBSAS2
# [4] = substrate: N[C@@H](CS)C(=O)O; type: biochemical, Spodoptera littoralis; conditions: 6 mM KCN, 20 µM pyridoxal-5'-phosphate, Tris-HCl pH 8.5, 31 °C, 10 min
# Excerpt: colorimetric sulfide formation, Michaelis-Menten fit on SlBSAS2b
# [5] = substrate: N[C@@H](CS)C(=O)O; type: biochemical, Anthocharis cardamines; conditions: 6 mM KCN, 20 µM pyridoxal-5'-phosphate, Tris-HCl pH 8.5, 31 °C, 10 min
# Excerpt: colorimetric sulfide formation, Michaelis-Menten fit on AcaBSAS1
# [6] = substrate: N[C@@H](CS)C(=O)O; type: biochemical, Anthocharis cardamines; conditions: 6 mM KCN, 20 µM pyridoxal-5'-phosphate, Tris-HCl pH 8.5, 31 °C, 10 min; remark: listed apart in the source
# Excerpt: colorimetric sulfide formation, Michaelis-Menten fit on AcaBSAS2
# [7] = substrate: N[C@@H](CS)C(=O)O; type: biochemical, Plutella xylostella; conditions: 6 mM KCN, 20 µM pyridoxal-5'-phosphate, Tris-HCl pH 8.5, 31 °C, 10 min
# Excerpt: colorimetric sulfide formation, Michaelis-Menten fit on PxBSAS2
# [8] = substrate: N[C@@H](CS)C(=O)O; type: biochemical, Spodoptera littoralis; conditions: 6 mM KCN, 20 µM pyridoxal-5'-phosphate, Tris-HCl pH 8.5, 31 °C, 10 min; remark: listed apart in the source
# Excerpt: colorimetric sulfide formation, Michaelis-Menten fit on SlBSAS2a
# [9] = substrate: N[C@@H](CS)C(=O)O; type: biochemical, Gonepteryx rhamni; conditions: 6 mM KCN, 20 µM pyridoxal-5'-phosphate, Tris-HCl pH 8.5, 31 °C, 30 min
# Excerpt: colorimetric sulfide formation, Michaelis-Menten fit on GrBSAS2
# [10] = substrate: N[C@@H](CS)C(=O)O; type: biochemical, Colias croceus; conditions: 6 mM KCN, 20 µM pyridoxal-5'-phosphate, Tris-HCl pH 8.5, 31 °C, 10 min; remark: listed apart in the source
# Excerpt: colorimetric sulfide formation, Michaelis-Menten fit on CcBSAS3
# [11] = substrate: N[C@@H](CS)C(=O)O; type: biochemical, Anthocharis cardamines; conditions: 6 mM KCN, 20 µM pyridoxal-5'-phosphate, Tris-HCl pH 8.5, 31 °C, 10 min; remark: listed apart in the source
# Excerpt: colorimetric sulfide formation, Michaelis-Menten fit on AcaBSAS3
# [12] = substrate: N[C@@H](CS)C(=O)O; type: biochemical, Aporia crataegi; conditions: 6 mM KCN, 20 µM pyridoxal-5'-phosphate, Tris-HCl pH 8.5, 31 °C, 10 min; remark: listed apart in the source
# Excerpt: colorimetric sulfide formation, Michaelis-Menten fit on AcrBSAS2
protein,measurement,setting,value
B1,Km,[1],0.75 (±0.06) mM
same,Vmax,[1],1.04 µmol/min/mg
B2,Km,[2],0.26 (±0.00) mM
same,Vmax,[2],14 µmol/min/mg
B3,Km,[3],0.74 (±0.04) mM
same,Vmax,[3],2.99 µmol/min/mg
B4,Km,[4],1.07 (±0.03) mM
same,Vmax,[4],11.6 µmol/min/mg
B5,Km,[5],0.41 (±0.01) mM
same,Vmax,[5],23.8 µmol/min/mg
B6,Km,[6],0.44 (±0.01) mM
same,Vmax,[6],1.76 µmol/min/mg
B7,Km,[7],0.52 (±0.04) mM
same,Vmax,[7],3.72 µmol/min/mg
B8,Km,[8],0.60 (±0.01) mM
same,Vmax,[8],1.44 µmol/min/mg
B9,Km,[9],0.37 (±0.00) mM
same,Vmax,[9],0.24 µmol/min/mg
B10,Km,[10],1.50 (±0.08) mM
same,Vmax,[10],0.43 µmol/min/mg
B11,Km,[11],0.96 (±0.04) mM
same,Vmax,[11],1.41 µmol/min/mg
B12,Km,[12],0.58 (±0.04) mM
same,Vmax,[12],2.09 µmol/min/mg
